According to US20140212406A1 (INSTITUT NATIONAL DE LA SANTE ET DE LA RECHERCHE MEDICALE …, published 2014):
Substitutions are numbered along the chain they refer to. Numbers in names are those of the source.

B1: human tPA containing the triple mutation P125R W253R R275S, 6xHis tag and linker at the N-terminus (enzyme)
chain: HHHHHHGSSYQVICRDEKTQMIYQQHQSWLRPVLRSNRVEYCWCNSGRAQCHSVPVKSCSEPRCFNGGTCQQALYFSDFVCQCPEGFAGKCCEIDTRATCYEDQGISYRGTWSTAESGAECTNWNSSALAQKRYSGRRPDAIRLGLGNHNYCRNPDRDSKPWCYVFKAGKYSSEFCSTPACSEGNSDCYFGNGSAYRGTHSLTESGASCLPWNSMILIGKVYTAQNPSAQALGLGKHNYCRNPDGDAKPWCHVLKNRRLTREYCDVPSCSTCGLRQYSQPQFSIKGGLFADIASHPWQAAIFAKHRRSPGERFLCGGILISSCWILSAAHCFQERFPPHHLTVILGRTYRVVPGEEEQKFEVEKYIVHKEFDDDTYDNDIALLQLKSDSSRCAQESSVVRTVCLPPADLQLPDWTECELSGYGKHEALSPFYSERLKEAHVRLYPSSRCTSQHLLNRTVTDNMLCAGDTRSGGPQANLHDACQGDSGGPLVCLNDGRMTLVGIISWGLGCGQKDVPGVYTKVTNYLDWIRDNMRP
B2: human tPA containing a tryptophan to arginine point mutation at position 253 (W253R), 6xHis tag and linker at the N-terminus (enzyme)
chain: B1 chain with R133P, S283R
B3: human single-chain tPA with arginine to serine point mutation at position 275 (R275S), 6xHis tag and linker at the N-terminus (enzyme)
chain: B1 chain with R133P, R261W
B4: human tPA containing the double mutation W253R R275S, 6xHis tag and linker at the N-terminus (enzyme)
chain: B1 chain with R133P
B5: rat single-chain tPA with arginine to serine point mutation at position 276 (R276S), 6xHis-tagged (enzyme)
chain: HHHHHHSYRATCRDEQTQTTYQQHQSWLRPMLRGNRVEYCRCNSGLAQCHSVPVRSCSEPRCFNGGTCQQALYFSDFVCQCPDGFVGKRCDIDTRATCFEGQGITYRGTWSTAENGAECINWNSSALSQKPYSARRPNAIKLGLGNHNYCRNPDRDVRPWCYVFKAGKYTTEFCSTPACPKGPTEDCYVGKGVTYRGTHSFTTSKASCLPWNSMILIGKTYTAWRANSQALGLGRHNYCRNPDGDAKPWCHVMKDRKLTWEYCDMSPCSTCGLRQYKQPLFSIKGGLFTDITSHPWQAAIFVKNKRSPGERFLCGGVLISSCWVLSAAHCFVERFPPHHLKVVLGRTYRVVPGEEEQTFEIEKYIVHKEFDDDTYDNDIALLQLRSDSSQCAQESSSVGTACLPDPDVQLPDWTECELSGYGKHEASSPFFSDRLKEAHVRLYPSSRCTSQHLFNKTITSNMLCAGDTRTGGNQDVHDACQGDSGGPLVCMIDKRMTLLGIISWGLGCGQKDVPGIYTKVTNYLNWIQDNMKQ
notes: Present only in its single-chain form; also called sc*-tPA; rat sc*-tPA
B6: rat tPA with tryptophan to arginine point mutation at position 254 (W254R), 6xHis-tagged (enzyme)
chain: B5 chain with W260R, S282R
notes: also called K2*-tPA; tPA W254R
B7: fibrin (other)
chain 1: GPRVVERHQSACKDSDWPFCSDEDWNYKCPSGCRMKGLIDEVNQDFTNRINKLKNSLFEYQKNNKDSHSLTTNIMEILRGDFSSANNRDNTYNRVSEDLRSRIEVLKRKVIEKVQHIQLLQKNVRAQLVDMKRLEVDIDIKIRSCRGSCSRALAREVDLKDYEDQQKQLEQVIAKDLLPSRDRQHLPLIKMKPVPDLVPGNFKSQLQKVPPEWKALTDMPQMRMELERPGGNEITRGGSTSYGTGSETESPRNPSSAGSWNSGSSGPGSTGNRNPGSSGTGGTATWKPGSSGPGSTGSWNSGSSGTGSTGNQNPGSPRPGSTGTWNPGSSERGSAGHWTSESSVSGSTGQWHSESGSFRPDSPGSGNARPNNPDWGTFEEVSGNVSPGTRREYHTEKLVTSKGDKELRTGKEKVTSGSTTTTRRSCSKTVTKTVIGPDGHKEVTKEVVTSEDGSDCPEAMDLGTLSGIGTLDGFRHRHPDEAAFFDTASTGKTFPGFFSPMLGEFVSETESRGSESGIFTNTKESSSHHPGIAEFPSRGKSSSYSKQFTSSTSYNRGDSTFESKSYKMADEAGSEADHEGTHSTKRGHAKSRPV
chain 2: GHRPLDKKREEAPSLRPAPPPISGGGYRARPAKAAATQKKVERKAPDAGGCLHADPDLGVLCPTGCQLQEALLQQERPIRNSVDELNNNVEAVSQTSSSSFQYMYLLKDLWQKRQKQVKDNENVVNEYSSELEKHQLYIDETVNSNIPTNLRVLRSILENLRSKIQKLESDVSAQMEYCRTPCTVSCNIPVVSGKECEEIIRKGGETSEMYLIQPDSSVKPYRVYCDMNTENGGWTVIQNRQDGSVDFGRKWDPYKQGFGNVATNTDGKNYCGLPGEYWLGNDKISQLTRMGPTELLIEMEDWKGDKVKAHYGGFTVQNEANKYQISVNKYRGTAGNALMDGASQLMGENRTMTIHNGMFFSTYDRDNDGWLTSDPRKQCSKEDGGGWWYNRCHAANPNGRYYWGGQYTWDMAKHGTDDGVVWMNWKGSWYSMRKMSMKIRPFFPQQ
chain 3: YVATRDNCCILDERFGSYCPTTCGIADFLSTYQTKVDKDLQSLEDILHQVENKTSEVKQLIKAIQLTYNPDESSKPNMIDAATLKSRKMLEEIMKYEASILTHDSSIRYLQEIYNSNNQKIVNLKEKVAQLEAQCQEPCKDTVQIHDITGKDCQDIANKGAKQSGLYFIKPLKANQQFLVYCEIDGSGNGWTVFQKRLDGSVDFKKNWIQYKEGFGHLSPTGTTEFWLGNEKIHLISTQSAIPYALRVELEDWNGRTSTADYAMFKVGPEADKYRLTYAYFAGGDAGDAFDGFDFGDDPSDKFFTSHNGMQFSTWDNDNDKFEGNCAEQDGSGWWMNKCHAGHLNGVYYQGGTYSKASTPNGYDNGIIWATWKTRWYSMKKTTMKIIPFNRLTIGEGQQHHLGGAKQVRPE

Key:
[1] = molecular target: N-methyl-D-aspartate receptor on primary cultured mouse cortical neurons (mouse, UniProt P35438 19-938); experiment: cell-based or functional assay
fibrin = molecular target: B7; experiment: binding of tPA variants to a solid-phase fibrin surface on PVC plates (3 independent experiments, 12 doses)
[2] = molecular target: T1, rat wild type tPA (Rattus norvegicus), 6xHis-tagged (rat, UniProt P19637 33-559); experiment: as above
T1 construct: mature; Produced in HEK-293 cells and purified on Ni-NTA; also called wt-tPA; rat wt-tPA

B1
neuronal cell death (LDH release, cortical neurons, 0.3 uM) [1]: 51%

B2
neuronal cell death (LDH release, cortical neurons, 0.3 uM) [1]: 64%

B3
neuronal cell death (LDH release, cortical neurons, 0.3 uM) [1]: 62%

B4
neuronal cell death (LDH release, cortical neurons, 0.3 uM) [1]: 62%

B5
Kd (fibrin): 1.2 nM

B6
Kd (fibrin): 0.5 nM

B7
Kd [2]: 0.26 nM
